According to US20080187530A1:

Target: formyl peptide receptor-like 1 (FPRL1) (human) (UniProt P25090)
Test: cell-based or functional assay

Chain of UniProt P25090 (P25090 whole entry): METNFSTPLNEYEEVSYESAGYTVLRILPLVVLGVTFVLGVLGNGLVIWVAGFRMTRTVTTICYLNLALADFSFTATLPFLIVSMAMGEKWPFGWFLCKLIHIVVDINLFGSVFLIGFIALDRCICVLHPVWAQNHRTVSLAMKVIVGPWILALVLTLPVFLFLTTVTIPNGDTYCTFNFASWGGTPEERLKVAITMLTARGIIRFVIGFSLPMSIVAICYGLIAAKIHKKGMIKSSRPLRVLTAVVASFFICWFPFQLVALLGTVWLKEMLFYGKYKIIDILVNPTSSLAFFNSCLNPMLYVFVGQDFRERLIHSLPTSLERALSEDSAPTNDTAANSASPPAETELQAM

## LL-37 peptide (from UniProt P49913 134-170)
  decrease in proliferation of HaCaT cells treated with LL-37 after pretreatment with pertussis toxin: 50%
